Earlier results, collected in publication PMC6722209.

Tests used:
[1] = molecular target: IgG1 Fc Fc (Homo sapiens) [IgG part: P01857]; test: fluorescence anisotropy
[2] = molecular target: IgG1 Fc Fc (Homo sapiens) [IgG part: P01857]; test: ITC and SPR

Chain of TRIM21 (P19474 whole entry): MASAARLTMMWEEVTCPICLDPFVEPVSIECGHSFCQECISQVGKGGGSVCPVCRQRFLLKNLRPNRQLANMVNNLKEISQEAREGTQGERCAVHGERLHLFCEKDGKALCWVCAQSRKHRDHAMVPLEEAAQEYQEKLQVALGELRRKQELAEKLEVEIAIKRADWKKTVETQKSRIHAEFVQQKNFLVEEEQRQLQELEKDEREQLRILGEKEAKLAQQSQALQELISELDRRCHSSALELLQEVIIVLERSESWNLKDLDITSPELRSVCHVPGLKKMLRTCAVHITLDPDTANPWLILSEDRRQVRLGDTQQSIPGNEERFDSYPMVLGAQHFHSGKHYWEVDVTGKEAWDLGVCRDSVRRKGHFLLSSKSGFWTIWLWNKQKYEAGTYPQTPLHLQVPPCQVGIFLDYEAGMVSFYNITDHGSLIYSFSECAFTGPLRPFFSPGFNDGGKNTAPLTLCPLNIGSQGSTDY
Chain of TRIM21 PRYSPRY (P19474 268-465): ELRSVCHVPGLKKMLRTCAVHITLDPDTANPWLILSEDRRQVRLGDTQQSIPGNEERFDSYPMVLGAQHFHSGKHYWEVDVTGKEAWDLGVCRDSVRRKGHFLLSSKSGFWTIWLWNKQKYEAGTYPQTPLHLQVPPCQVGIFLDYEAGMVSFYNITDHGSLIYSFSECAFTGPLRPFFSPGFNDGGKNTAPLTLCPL

| Kd [1] | Kd [2] | Substance |
| --- | --- | --- |
| 0.6 nM |  | TRIM21 (from UniProt P19474) |
|  | 175 nM | TRIM21 PRYSPRY (from UniProt P19474) |
